For one experiment, the system named is HCT116 cells. The experiment can be described thus: MTT cell proliferation assay. The experiment is classed as cell-based, human. The conditions noted are these: 24, 48 or 72 h, PEPD^G278D 5-250 nM, cetuximab 2.75-275 nM, panitumumab 2.77-277 nM. As for the experimental part: (§1) Cells were grown in 96-well plates. […] The cells were then washed with PBS and mixed with dimethyl sulfoxide (150 μl per well), and cell density was determined by measuring the reduction of MTT to formazan spectroscopically at 570 nm using a Synergy 2 Multi-Mode Microplate Reader (BioTek). In experiments involving siRNA transfection, 2×10^3 HCT116 cells or 6×10^3 HT29 cells were seeded to each well of 96-well plates overnight and then transfected 25 nM siRNA (scramble siRNA, EGFR siRNA or HER2 siRNA) as described above, followed by MTT assay.
Background: Tetrazolium dyes change colour on reduction, which living cells bring about.

Another experiment has as its system HT29 cells. The experiment can be described thus: MTT cell proliferation assay. The experiment is classed as cell-based, human. Conditions: 24, 48 or 72 h, PEPD^G278D 5-250 nM, cetuximab 2.75-275 nM, panitumumab 2.77-277 nM. On the procedure:
as §1

In the next experiment the test system is SW48 cells. The experiment can be described thus: MTT cell proliferation assay. The experiment is classed as cell-based, human. As for the experimental part:
as §1

The next experiment deals with SW620 cells. The experiment can be described thus: MTT cell proliferation assay. Format: cell-based, human. Conditions: SW620 cells (no EGFR, no HER2); 24, 48 or 72 h. As for the experimental part:
as §1

In experiment [1] the target is T1, EGFR and HER2 (Homo sapiens, UniProt P00533).
T1 construct: Both EGFR and HER2 were expressed in HCT116, HT29, and SW48 cells; endogenous in cells; host or cells: HCT116, HT29, SW48 (SW620 lacks both)
The experiment can be described thus: Western blotting of whole cell lysates: EGFR and HER2. Format: cell-based. The conditions noted are these: HCT116, HT29 and SW48 cells, medium with 10% serum, 25 nM. As for the experimental part: (§2) To prepare whole cell lysates, cells were washed with PBS twice, mixed with 1× cell lysis buffer from Cell Signaling Technology supplemented with 2 mM PMSF and a protease inhibitor cocktail from Roche Applied Science, placed on ice for 10 min, sonicated at 0-4° C. to enhance cell lysis using a Branson Model 450 sonifier, and finally centrifuged at 13,000 g for 10 min at 4° C., and the supernatant fraction is collected as whole cell lysate. Tumor and samples were mixed with RIPA buffer (25 mM Tris-HCl, PH7.6, 150 mM NaCl, 1% Nonidet P-40, 1% sodium deoxycholate, and 0.1% SDS), which was supplemented with 2 mM PMSF, the protease inhibitor cocktail mentioned above, phosphatase inhibitor cocktail 2 and phosphatase inhibitor cocktail 3 from Sigma-Aldrich at 14.3 μl buffer per mg tissue, and homogenized in a Dounce homogenizer. The homogenates were cleared by centrifugation at 13,000 g for 15 min at 4° C.
(§3) Protein concentrations in all samples were measured using the BCA Assay Kit. For Western blotting, each sample was mixed with 4× loading dye, heated for 5 min at 95° C., and resolved by SDS-PAGE (8-12.5%). Proteins were transferred to polyvinylidene fluoride membrane, probed with specific antibodies, and detected using either Luminata Classico (Millipore) or Luminata Cresendo (Millipore). For IP, cell lysates (0.5 mg protein/sample) were incubated with a desired antibody overnight at 4° C., followed by incubation of 500 μl sample with 30 μl G-Sepharose beads (2 mg/ml) for 1 h at RT. The beads were washed three times with IP buffer, suspended in 2× SDS loading buffer, boiled for 5 min, and analyzed by Western blotting.
In general terms: A western blot detects proteins with antibodies after separation by electrophoresis.

Experiment [2] concerns EGFR and HER2. Described as above. Conditions: 25 nM. The experiment is classed as cell-based, human. On the procedure: as §2, §3
In experiment [3] the test system is EGFR^R451C, EGFR^K467T, EGFR^S492R and WT EGFR. The experiment can be described thus: Western blotting of SW620 cells transfected with EGFR or its mutant. The experiment is classed as cell-based, human. The conditions noted are these: 25 nM for 48 h, extent very similar to WT EGFR. The text has this:
pGL4.51[luc2/CMV/Neo] was purchased from Promega (Cat #E132A). pCMV6-A-EGFR-puro, reported previously, was used as a template to generate single point mutations of EGFR, including R451C, K467T, and S492R, using the QuikChange Lightning Site-Directed Mutagenesis Kit (Agilent Technologies). The primers were purchased from IDT, including primers for generating EGFR^R451C (forward: 5′-[…]-3 (SEQ ID NO:2); reverse: 5′-[…]-3′ (SEQ ID NO:3), EGFR^K467T(forward: 5-[…]-3′ (SEQ ID NO:4); reverse: 5′-[…]-3′ (SEQ ID NO:5), and EGFR^S492R (forward: 5′-[…]-3′ (SEQ ID NO:6); reverse: 5′-[…]-3′ (SEQ ID NO:7)). All constructs were confirmed by DNA sequence analysis.
Transfection of pCMV6-A-puro-EGFR, pCMV6-A-puro-EGFR^R451C, pCMV6-A-puro-EGFR^K467T or pCMV6-A-puro-EGFR^RS492R was performed using Lipofectamine 3000. SW620 cells were grown in 6-well plates (3×10^5 cells/well with 2 ml medium) for 24 h and then transfected with a plasmid at 1 μg DNA per well for 48 h. […]
Protein concentrations in all samples were measured using the BCA Assay Kit. […] Proteins were transferred to polyvinylidene fluoride membrane, probed with specific antibodies, and detected using either Luminata Classico (Millipore) or Luminata Cresendo (Millipore). […] The beads were washed three times with IP buffer, suspended in 2× SDS loading buffer, boiled for 5 min, and analyzed by Western blotting.

The test system of experiment [4] is EGFR-HER3, EGFR-IGF1R and EGFR-MET heterodimers. The experiment can be described thus: Immunoprecipitation and Western blotting of EGFR heterodimers. Format: cell-based, human. The conditions noted are these: 25 nM, 48 h. As for the experimental part:
as §3

B1: PEPD^G278D: recombinant and enzymatically inactive mutant of human peptidase D (PEPD), with replacement of glycine 278 by aspartic acid (protein)
chain: AAATGPSFWLGNETLKVPLALFALNRQRLCERLRKNPAVQAGSIVVLQGGEETQRYCTDTGVLFLQESFFHWAFGVTEPGCYGVIDVDTGKSTLFVPRLPASHATWMGKIHSKEHFKEKYAVDDVQYVDEIASVLTSQKPSVLLTLRGVNTDSGSVCREASFDGISKFEVNNTILHPEIVESRVFKTDMELEVLRYTNKISSEAHREVMKAVKVGMKEYGLESLFEHYCYSRGGMRHSSYTCICGSGENSAVLHYGHAGAPNDRTIQNGDMCLFDMDGEYYSVASDITCSFPRNGKFTADQKAVYEAVLLSSRAVMGAMKPGDWWPDIDRLADRIHLEELAHMGILSGSVDAMVQAHLGAVFMPHGLGHFLGIDVHDVGGYPEGVERIDEPGLRSLRTARHLQPGMVLTVEPGIYFIDHLLDEALADPARASFLNREVLQRFRGFGGVRIEEDVVVIDSGIELLTCVPRTVEEIEACMAGCDKAFTPFSGPK
modifications: left off: small tags and cut ends
With B1, the “cell growth measured by MTT assay” value is on record as “strongly inhibited the growth” in the experiment with HCT116 cells; “strongly inhibited the growth” in the experiment on HT29 cells; “strongly inhibited the growth” in the experiment with SW48 cells (24, 48 or 72 h, PEPD^G278D 5-250 nM, cetuximab 2.75-275 nM, panitumumab 2.77-277 nM); “ineffective” in the experiment on SW620 cells. The “growth-inhibitory potency compared with the EGFR MABs” value in the experiment on SW48 cells is “more potent”. Also, the EGFR level entry in the experiment with EGFR and HER2 [1] (6 h) is on record as “no decrease”; with EGFR and HER2 [1] (24 h), “profound decrease”. Also, in the experiment with EGFR and HER2 [2] (HCT116, HT29 and SW48 cells, medium with 10% serum, 3 h), the HER2 level entry was “decreased markedly”. Also, the “expression and tyrosine phosphorylation of EGFR and HER2” value in the experiment with EGFR and HER2 [2] (SW48, HCT116 and HT29 cells, 48 h) is listed as “obliterated”. In the experiment with EGFR and HER2 [2] (serum-free medium, 3 h), the “EGFR and HER2 level” value is on record as “marked decrease”. Further, the “downregulation (expression and phosphorylation) of each EGFR mutant R451C, K467T, S492R” value in experiment [3] was “strongly downregulated”. In experiment [4], the “EGFR association with HER3, MET or IGF1R” value is “disruption of EGFR association”.

The values are drawn from US20250009852A1, “DEPLETING EGFR AND HER2 OVERCOMES RESISTANCE TO EGFR INHIBITORS IN COLORECTAL CANCER” (Health Research, Inc., priority 2021, published 2025).
